Experimental findings from paper PMC9089384 are described below.

This assay addresses human SHP2 catalytic domain (human) (UniProt Q06124).

Take “isolated SHP2 N-SH2 domain (domain or fragment)”: the IC50 of inhibition of SHP2 CD PTP activity by isolated N-SH2 (Figure S2) was 15 µM.
